This is an account of results in publication PMC6373445, “Identification and characterization of GH11 xylanase and GH43 xylosidase from the chytridiomycetous fungus, Rhizophlyctis rosea” (Applied Microbiology and Biotechnology, 2018).

One data set addresses T1, RrXyl43A (Rhizophlyctis rosea, UniProt A0A2U8LMQ1).
T1 construct: full-length 325 residues, no native signal peptide; codon-optimized in pPICZalphaA with alpha-factor signal, His-tagged, Pichia pastoris KM71H; theoretical 39 kDa with tag; active as monomer; not N-glycosylated
T1 sequence (A0A2U8LMQ1 1-325): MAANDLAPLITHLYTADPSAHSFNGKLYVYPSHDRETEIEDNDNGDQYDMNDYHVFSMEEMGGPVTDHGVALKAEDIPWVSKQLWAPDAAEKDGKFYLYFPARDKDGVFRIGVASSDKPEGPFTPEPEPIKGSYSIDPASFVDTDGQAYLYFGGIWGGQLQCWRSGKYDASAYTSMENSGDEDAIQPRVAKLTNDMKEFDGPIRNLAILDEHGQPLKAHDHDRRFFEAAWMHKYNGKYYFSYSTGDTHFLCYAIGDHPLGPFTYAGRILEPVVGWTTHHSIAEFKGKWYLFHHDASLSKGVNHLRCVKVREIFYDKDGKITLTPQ
Kind of data set: residual pNPX hydrolysis, absorbance […] nm. The format is biochemical. The following applies: read-out: % residual activity at 100 mM.

Substrate in the data set “purified protein”: O=[N+]([O-])c1ccc(O[C@@H]2OC[C@@H](O)[C@H](O)[C@H]2O)cc1
Kind of data set: purified protein. The format is biochemical, Rhizophlyctis rosea. Conditions: McIlvaine buffer pH 7, 25 °C, 10 min.

What is called Km is the concentration of substrate that gives half-maximal velocity. One may read the Vmax as the rate approached at saturating substrate. One may read the kcat as the maximal rate divided by the concentration of active sites.

Consider `OC1OC[C@@H](O)[C@H](O)[C@H]1O` (stereo partly shown) [xylose], for which the remaining activity at 100000 µM on RrXyl43A amounted to 51%.

B1: RrXyl43A (Rhizophlyctis rosea) (protein)
chain: T1 sequence (A0A2U8LMQ1 1-325)
notes: full-length 325 residues, no native signal peptide; codon-optimized in pPICZalphaA with alpha-factor signal, His-tagged, Pichia pastoris KM71H; theoretical 39 kDa with tag; active as monomer; not N-glycosylated
Consider B1, for which, in the data set “purified protein”, the Km turned out to be 1340 ± 170 µM, the Vmax was 34.6 µmol/min/mg and the kcat turned out to be 21.2 ± 0.89 s⁻¹.
